Where a chain is given by its changes, count along the chain named.

One experiment deals with RSV F on RSV-A2 virus (Respiratory Syncytial Virus (RSV-A2), UniProt P03420 26-574). The experiment can be described thus: cell-based or functional assay.
The target in experiment [1] is RSV postfusion F (postF), F ΔFP (Respiratory Syncytial Virus, UniProt P03420 26-513). The experiment can be described thus: BLI, IgG on anti-human IgG sensor, 100 nM antigen, 1:1 fit. Background: BLI is a label-free optical method that tracks binding on a fibre tip over time.
The target of experiment [2] is RSV prefusion F (preF), DS-Cav1 (Respiratory Syncytial Virus, UniProt P03420 26-513). The experiment is described as above.

B1: ADI-41469 (antibody, V domains shown)
VH: EVQLVESGGGVVQPGRSLRLSCAASGFTFSSYGMHWVRQAPGKGLEWVAVISYDGSFIKYADSMMGRFTISRDNSKNTLYLQMSSLRPEDTATYYCAKDALIPEYWGQGTLVTVSS
VL: QPVLTQPASVSGSPGQSITISCTGTSSDVGGYNYVSWYQKHPDKAPRVIIYEVSNRPSGVSNRFSGSKSGNTASLTISGLQAEDEADYYCCSYTSTSGVVFGGGTKLTVL
As to B1, the “Neutralization IC50 (RSV subtype A)” value in the experiment with RSV F on RSV-A2 virus came to 0.35 mg/L. The values for the Kd in experiment [1] and in experiment [2] were 0.345 nM and 0.28 nM, respectively.

B2: ADI-41461 (antibody, V domains shown)
VH: QVQLVQSGAEVKKPGASVKVSCRASGYTFSSYDINWVRQATGQGLEWMGWMSPNSANTGYAQKFQGRVTMTRDTSINTAYMELSSLSSEDTAVYYCARFLGYCSGGSCYPGYGMDVWGQGTTVTVSS
VL: EIVLTQSPDSLAVSLGERATINCKSSQNVLYSSNNKDYLSWYQQKPGQPPKLLIYWASTRESGVPDRFSGSGSGTDFTLTINSLQAEDVAVYYCQQYYGTPYTFGQGTKLEIK
In the case of B2, the “Neutralization IC50 (RSV subtype A)” value in the experiment with RSV F on RSV-A2 virus was greater than 25 mg/L. In addition, the Kd is 0.548 nM in experiment [1] and 2.3 nM in experiment [2].

B3: ADI-41468 (antibody, V domains shown)
VH: QVQLQQWGAGPLKSSETLSLTCEVYGGPFSGYSWSWIRQPPGKGLEWIGEINHSGSTNYNPSLKSRVSFSVDTSKNQFSLKLSSVTAADTAVYYCARGAGFCTSTSCPPGLYYYYGMDVWGHGTTVTVSS
VL: SYELTQPLSVSVALGQTARITCGGNNIESKNVHWYQQMPGLAPVMVIYRDTNRPSGIPERFSGSNSGNTATLTISRAQAGDEADYYCQVWDSGTVIFGGGTKLTVL
notes: also called Ab 752; Antibody Number 752
B3: in the experiment with RSV F on RSV-A2 virus, the “Neutralization IC50 (RSV subtype A)” value was greater than 25 mg/L. For the same molecule, the Kd was 0.344 nM in experiment [1] and 0.716 nM in experiment [2].

B4: ADI-41472 (antibody, V domains shown)
VH: QVQLVQSGAEVKKPGSSVKVSCKASGGTFSSYAISWVRQAPGQGLEWMGRIIPVLDITNYAQKFQGRVTIMADKSTSTAYMELSSLRSEDTAIYYCARETSNFYFYYNAMDVWGQGTTVTVSS
VL: QPVLTQPPSASGSPGQSVTISCTGTSSDVGGDNYVSWYQQHPGKAPKLLIYEVSKRPSGVPDRFSGSRSGHTASLTVSGLQAEDEADYYCSSYAGRNNLGVFGGGTKLTVL
Consider B4, for which the “Neutralization IC50 (RSV subtype A)” value in the experiment with RSV F on RSV-A2 virus came out at 0.27 mg/L. Also, the Kd in experiment [1] stood at 1.06 nM; in experiment [2], 3.05 nM.

B5: ADI-41466 (antibody, V domains shown)
VH: QVQLVQSGAEVKKPGASVKVSCKASGYTFNFYYMHWVRQAPGQGLEWMGWINPKSGGTSYAQKFQGRVIMTGDTSISTTYMELSRLRSDDTAVYYCARADTGLELDVWGQGTTVTVSS
VL: QSALIQPASVSGSPGQSITISCTGTSSDVGGYNYVSWYQQHPGKAPKLILYDVSKRPSGVSNRFSGSKSGNTASLTISGLQAEDESDYFCSSYTRSNTVVFGGGTKVTVL
notes: also called Ab 750; Antibody Number 750
For B5, the “Neutralization IC50 (RSV subtype A)” value with RSV F on RSV-A2 virus is greater than 25 mg/L. Moreover, the Kd in experiment [1] was 0.383 nM; in experiment [2] it was 2.05 nM.

B6: ADI-41463 (antibody, V domains shown)
VH: QVQLVQSGAEVKKPGASVKVSCTASGYSFTDYDISWVRQAPGQGLEWMGWISAYNGNTNYAQKFQDRVTMNTDTSTNTAYMELRGLRSDDTAVYYCARNCYYGSGTCYIEDYYFDYWGQGTLVTVSS
VL: DIQMTQSPSSLSASVGDRVTITCRASQDIKNDLGWYQQKPGKPPKRLIYGASRSQSGVPSRFSGSGSGTDFTLTIYSLQPEDFATYYCLQHSDYPFTFGQGTRLEIK
notes: also called Ab 747; Antibody Number 747
For the molecule B6, the “Neutralization IC50 (RSV subtype A)” value in the experiment with RSV F on RSV-A2 virus was greater than 25 mg/L. The Kd worked out at 0.485 nM in experiment [1] and 2.68 nM in experiment [2].

B7: ADI-41459 (antibody, V domains shown)
VH: QVQLVESGGGLVQPGGSLRLSCAASGFPFSAYGINWVRQAPGKGLEWVSYISSTSTTIKYADSVKGRFTISRDDAKNSLYLQLRSLRPEDTAVYYCAGGVWSGYYIDFWGQGTPVTVSS
VL: NFMLTQPQSVSESPGKTVTISCTRSSGSIGSNFVQWYQQRPGSSPTTVIYEDYQRPSGVPDRFSGSIDSSSNSASLTISGLKTEDEADYYCQSYDADMMVFGGGTKLTVL
notes: also called Ab 743; Antibody Number 743
For B7, the “Neutralization IC50 (RSV subtype A)” value with RSV F on RSV-A2 virus is greater than 25 mg/L. Further, the Kd was 0.343 nM in experiment [1] and 1.89 nM in experiment [2].

B8: ADI-41482 (antibody, V domains shown)
VH: QVQLVQSGAEVKKPGSSVKVSCKASGGTFGSYTINWVRQAPGQGLEWMGGIIPIFGATNYAQNFQGRVSITADKSTATAYMDLISLRSEDTAVYYCARLGRSSPLNSCTTTSCYFWGRGMDVWGQGTTVTVSS
VL: QSVLIQPASVSGSPGQSITISCTGTISDVGIYNYVSWYQQHPGKAPKLIISDVSDRPSGVSNRFSGSKSGITASLTITGLQAEDEADYYCSSYSSSSTLYVFGTGTKLTVL
B8: in the experiment with RSV F on RSV-A2 virus, the “Neutralization IC50 (RSV subtype A)” value was greater than 25 mg/L. The equilibrium dissociation constant (Kd) in experiment [1] was found to be 1.49 nM; in experiment [2] it was 3.37 nM.

B9: ADI-41460 (antibody, V domains shown)
VH: QVTLKESGPALVKPTQTLTLTCTFSGFSLNTRGMCVSWVRQPPGKALEWLARIDWDDDKNYSTSLRTRLTISKDTSRNQVVLAMANMDPVDTATYYCARCARYDRSGYYVWYLDSWGQGTLVTVSS
VL: DIQMTQSPSSLSASVGDRVTITCRASQTIASYLNWYQQKPGKAPKLLIYVASTLQSGVPSRFSGSGSGTDFTLTISSLQPEDFATYYCQQSYSLTQWTFGQGTKVEIK
On to B9, for which the “Neutralization IC50 (RSV subtype A)” value with RSV F on RSV-A2 virus is greater than 25 mg/L. For the same molecule, the Kd was found to be 0.632 nM in experiment [1] and 1.23 nM in experiment [2].

B10: ADI-41464 (antibody, V domains shown)
VH: QVQLVESGPGLVRPSGTLSLTCTVSGDSVNSYRWSWIRQSPGKGLEWIGYISYSGETNYNPSLKSRVSISVGTSRYQFFLKLSSVTAADTATYYCARDKTTIFGVSHYYFGVDVWGQGTTVTVSS
VL: DIVMTQTPLSLPVTPGEPASISCRSSQSLLKSDGYNSLDWYLQRPGQSPQLLIYLGSNRASGVPARFSGSGSGTDFTLKISRVEAEDVGVYYCMQALQTPFTFGPGTKVEIK
As for B10, in the experiment with RSV F on RSV-A2 virus, the “Neutralization IC50 (RSV subtype A)” value was greater than 25 mg/L. In addition, the figures for the Kd in experiment [1] and in experiment [2] were 0.313 nM and 1.91 nM, respectively.

B11: ADI-41480 (antibody, V domains shown)
VH: EVQLLESGPGLVRPSGTLSLTCTVSGDSISGSNWWAWVRQPPGRRLEWIGEIYYRGATDYNSSLKSRVIISVDNSKNQFSLNLRSVTAADTAIYYCARVEKFATSGYYISYFDYWGQGTLVTVSS
VL: DIRVTQSPSSLSASVGDRVTITCRASQSISTYLNWYQHNPGKAPKLLIYAASSLQSGVPSRFSGSGSGTHFTLTISSLQPADFSTYYCQQSYSSPWTFGQGTKVEIK
With B11, the “Neutralization IC50 (RSV subtype A)” value in the experiment with RSV F on RSV-A2 virus was greater than 25 mg/L. Moreover, the figures for the Kd in experiment [1] and in experiment [2] were 0.703 nM and 4.34 nM, respectively.

B12: ADI-41481 (antibody, V domains shown)
VH: QVQLVESGPGLVKPSETLSLACSVSGVSISTYYWTWIRQPPGKGLEWIGYISYSGSTNYNPSLKSRVTISADTSKNQFSLRLNSVTAADTAVYYCARTYYDFWSTYYGEFDHWGHGTLVTVSS
VL: SYELTQPLSVSVALGQTARITCGGNNIESKNVHWYQQKPGQAPVVVMYRDTNRPSGIPERFSGSNSGNTATLTISRAQAGDEADYYCQVWDSGTAGVVFGGGTKVTVL
notes: also called Ab 763; Antibody Number 763
Take B12: the “Neutralization IC50 (RSV subtype A)” value with RSV F on RSV-A2 virus stood at 0.68 mg/L. Besides, the Kd was found to be 0.443 nM in experiment [1] and 2.09 nM in experiment [2].

B13: ADI-41474 (antibody, V domains shown)
VH: QVQLVQSGAEVKRPGASVKVSCKISGYTFTSHYIHWLRQAPGQGLEWMGWINPNTGDTKYEQKFQGRVTMTRDTSLSTAYMELRRLRSDDTAVYYCARDSFYAANGYYFVWFDPWGQGALVTVSS
VL: DIQMTQSPTSLSASVGDRVTITCRASQSISSYLNWYQQKPGKAPRFLIYAASSLQSGVPSRFRGSGSGTDFTLTISSLQPEDFATYYCQQSYSSPYTFGQGTKVEIK
notes: also called Ab 757; Antibody Number 757
For B13, the “Neutralization IC50 (RSV subtype A)” value with RSV F on RSV-A2 virus came to 0.26 mg/L. Further, the Kd in experiment [1] stood at 34.8 nM; in experiment [2] it was 17.8 nM.

B14: ADI-41484 (antibody, V domains shown)
VH: EVQLVESGPGLVKPSEALSLTCTVSGASISSYYWTWIRQSPRKGLEWIGYIYHTGRTNYNPSLKRRVTMSVDWSKNQFSLTLSSVTAADTAVYYCARLKVVPAALESAILEHHFGLDVWGQGTTVTVSS
VL: DIVMTQTPSTLSASIGDRVTLTCRASQSINRWLAWYQQKPGKAPKLLIYKASTLESGVPSRFSGSGSGTEFTLTISGLQPDDFATYYCQQYNNFPYTFGPGTKVDIK
In the case of B14, the “Neutralization IC50 (RSV subtype A)” value with RSV F on RSV-A2 virus is greater than 25 mg/L. Further, the Kd in experiment [1] came out at 0.782 nM; in experiment [2], 3.44 nM.

B15: ADI-41471 (antibody, V domains shown)
VH: QVQLVQSGADVKKPGSSVKISCKASGGSFITNSLSWVRRAPGQGLEWMGGIIPVSGTTTYAQKFLGRVTFTADESTSTAYMELNSLRSEDTAVYYCARFLGTPYPNVHYGMDVWGQGTTVTVSS
VL: DIRVTQSPSSLSASVGARVTITCRASQSISTYLNWYQEKPGKAPKLLIYAASSLQRGVPSRFSGSGSETTFTLTISSLQPEDFATYYCQQSYTAAYNFGQGTKVEIK
Take B15: in the experiment with RSV F on RSV-A2 virus, the “Neutralization IC50 (RSV subtype A)” value is greater than 25 mg/L. Further, the Kd in experiment [1] was found to be 0.761 nM; in experiment [2] it was 3.75 nM.

B16: ADI-41473 (antibody, V domains shown)
VH: QVQLVQSGPGLVKPSQTLSLTCAISGDSVSSNSAAWSWIRQSPSRGLEWLGRTYYRSKWYYDHAVSVEGRITINADTSKNHFSLQLNSVTPEDTAVYYCARDPDSGNYFHYYGMDVWGQGTTVTVSS
VL: ETTLTQSPATLSLSPGERATLSCRTSQSVSSYLAWYQQKPGQAPRLLIYDASRRATGIPARFSGSGSGTHFTLTITSLEPEDFAVYYCQQRSKWPPYSFGQGTKVDIK
With B16, in the experiment with RSV F on RSV-A2 virus, the “Neutralization IC50 (RSV subtype A)” value was greater than 25 mg/L. The Kd came out at 31.2 nM in experiment [1] and 12.7 nM in experiment [2].

B17: ADI-41475 (antibody, V domains shown)
VH: B16 VH with V5Q, Q6E, S37N, Y60W, Y61T, H63Y, E68K, G69S, A75P, H81Q
VL: B16 VL with T25A, V29A, R53K, H70D, T72S, T76S, Q90L, S98T, D106E
Turning to B17, in the experiment with RSV F on RSV-A2 virus, the “Neutralization IC50 (RSV subtype A)” value was greater than 25 mg/L. Moreover, the Kd in experiment [1] was determined as 25.5 nM; in experiment [2] it was 12.2 nM.

By Kd is commonly meant the equilibrium constant for the complex coming apart. Read a high Kd as a looser complex.

The values above are taken from patent publication US20260258115A1 (MAPP BIOPHARMACEUTICAL, published 2026).
